Assay results as given in the nanobody polyreactivity screen of Harvey et al. (2022).

Assay: yeast display, Sf9 membrane polyspecificity reagent, FACS + sequencing; frameworks hold sequencing errors
In short: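 A nanobody's polyreactivity label depends on the gate it was sorted from. Yeast display cells were stained with 10% biotinylated, detergent-solubilized Sf9 membrane reagent for 1 hour at 4 °C, enriched on streptavidin microbeads and sorted by FACS. The low and high (top ~1%) gates were set on anti-HA fluorescence for expression and streptavidin fluorescence for reagent binding.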

Which “polyreactivity (PSR sort gate)” value does the source give for “QVQLVESGGGLVQAGGSLRLSCAASGRTFRANAMGWYRQAPGKERELFAAISKRGGNTYYADSVKGRFTISRDNAKNTVYLQMNSLKPEDTAVYYCADDFICRDYDYWGQGTQVTVSS” here?
Its value is “high polyreactivity”.

With “QVQLVESGGGLVQAGGSLRLSCAASGRTFRANAMGWYRQAPGKERELVAAIRTGTRTYYADSVKGRFTISRDNAKNTVYLQMNSLKPEDTAVYYCNRRHYYPYDNYDAMYYWGQGTQVTVSS” as the sequence, how does the “polyreactivity (PSR sort gate)” value read?
The value was “high polyreactivity”.

With “QVQLVESGGGLVQAGGSLRLSCAASGRTFRANTMGWYRLAPGKERELVAAISHSGGSTYYADSVKGRFTISRDNAKNTVYLQMNSLKPEDTAVYYCATDGGSYSWASPRVDYWGQGTQVTVSS” as the sequence, how does the “polyreactivity (PSR sort gate)” value read?
Its value is “low polyreactivity”.

For “QVQLVESGGGLVQAGGSLRLSCAASGRTFRANTMGWYRQAPGKERELVAAITWSGASTYYADSVKGRFTISRDNAKNTVYLQMNSLKPEDTAVYYCNAGWDSGIVQSDETVYKYDYWGQGTQVTVSS”, which “polyreactivity (PSR sort gate)” value is on record?
The value was “low polyreactivity”.

Which “polyreactivity (PSR sort gate)” value does the source give for “QVQLVESGGGLVQAGGSLRLSCAASGRTFRAYAMGWYRQAPGKERELVAAISSRGGSTYYADSVKGRFTISRDNAKNTVYLQMNSLKPEDTAVYYCNVDRYVRGLITFDYWGQGTQVTVSS” here?
Its value is “high polyreactivity”.

Which “polyreactivity (PSR sort gate)” value does the source give for “QVQLVESGGGLVQAGGSLRLSCAASGRTFRAYAMGWYRQAPGKERELVAGITSGGSTNYADSVKGRFTISRDNAKNTVYLQMNSLKPEDTAVYYCAARRGTYRYRYDYWGQGTQVTVSS” here?
Its value is “high polyreactivity”.

With “QVQLVESGGGLVQAGGSLRLSCAASGRTFRAYAMGWYRQAPGKERELVASISRGGSTKYADSVKGRFTISRDNAKNTVYLQMNSVKPEDTAVYYCAADRLRDGVDYWGQGTQVTVSS” as the sequence, how does the “polyreactivity (PSR sort gate)” value read?
Its value is “low polyreactivity”.

Which “polyreactivity (PSR sort gate)” value does the source give for “QVQLVESGGGLVQAGGSLRLSCAASGRTFRAYTMGWYRQAPGKERELVAAISTPGGSTYYADSVKGRFTISRDNAKNTVYLQMNSLKPEDTAVYYCAADRYYWGQGTQVTVSS” here?
Its value is “low polyreactivity”.

For “QVQLVESGGGLVQAGGSLRLSCAASGRTFREYAMGWYRHAPGKEREFVAAISESVGSTYYADSVKGRFTISRDNAKNTVYLQMNSLKPEDTAVYYCAKQSRYPSLDADYDYWGQGTQVTVSS”, which “polyreactivity (PSR sort gate)” value is on record?
Its value is “low polyreactivity”.

Which “polyreactivity (PSR sort gate)” value does the source give for “QVQLVESGGGLVQAGGSLRLSCAASGRTFRFYAMGWYRPAPGKERELVAGITRSGGGTYYADSVKGRFTISRDNAKNTVYLQMNSLKPEDTAVYYCAATHAYLGYGYWGQGTQVTVSS” here?
The value was “high polyreactivity”.

With “QVQLVESGGGLVQAGGSLRLSCAASGRTFRFYDMGWYRQAPGKERELVAAISRGGGSTYYADSVKGRFTISRDNAKNTVYLQMNSLKPEDTAVYYCAAKPYKTRSSYWGDYYWGQGTQVTVSS” as the sequence, how does the “polyreactivity (PSR sort gate)” value read?
The value was “high polyreactivity”.

Which “polyreactivity (PSR sort gate)” value does the source give for “QVQLVESGGGLVQAGGSLRLSCAASGRTFRGNALGWYRQAHGKERELVAAITGTGGSTYYADSVKGRFTISRDNAKNTVYLQRNRLKPEDTAVYYCAAVLRGHNGLKFEYWGQGTQVTVSS” here?
Its value is “high polyreactivity”.

Which “polyreactivity (PSR sort gate)” value does the source give for “QVQLVESGGGLVQAGGSLRLSCAASGRTFRGNAMGWYRQAPGKERELVAAIRWNGGSTYYADSVKGRFTISRDNAKNTVYLQMNSLKPEDTAVYYCAVLRLDYWGQGTQVTVSS” here?
The value was “high polyreactivity”.

With “QVQLVESGGGLVQAGGSLRLSCAASGRTFRGYAMGWYRQAPGKERELVAAISVTGSSTNYADSVKGRFTISRDNAKNTVYLQMNSLKPEDTAVYYCAASYRLYKYDYWGQGTQVTVSS” as the sequence, how does the “polyreactivity (PSR sort gate)” value read?
Its value is “high polyreactivity”.

For “QVQLVESGGGLVQAGGSLRLSCAASGRTFRGYAMGWYRQAPGKERELVAAISVTGSSTNYADSVKGRFTISRDNAKNTVYLQMNSLKPEDTAVYYCNAKRVRYSLSYDYWGQGTQVTVSS”, which “polyreactivity (PSR sort gate)” value is on record?
The value was “high polyreactivity”.

For “QVQLVESGGGLVQAGGSLRLSCAASGRTFRGYAMGWYRQAPGKERELVAAITRSGGSTYADSVKGRFTISRDNAKNTFYLQMNSLKPEDTAVYYCAADRGYKYYYWGQGTQVTVSS”, which “polyreactivity (PSR sort gate)” value is on record?
The value was “high polyreactivity”.

With “QVQLVESGGGLVQAGGSLRLSCAASGRTFRGYVMGWYRQAPGKEREFVAAITRSDGSTYYADSVKGRFTISRDNAKNTVYLQMNSLKPEDTAVYYCAADLRRFQSYYYWGQGTQVTVSS” as the sequence, how does the “polyreactivity (PSR sort gate)” value read?
The value was “high polyreactivity”.

For “QVQLVESGGGLVQAGGSLRLSCAASGRTFRGYVMGWYRQAPGKERELVAAISKSGGSTYYADSVKGRFTISRDNAKNTVYLQMNSLKPEDTAVYYCAKNYRYYVFYDGFDYWGQGTQVTVSS”, which “polyreactivity (PSR sort gate)” value is on record?
The value was “low polyreactivity”.

For “QVQLVESGGGLVQAGGSLRLSCAASGRTFRHNAMGWYRQAPGKERELVAAISKSGGRTYYADSVKGRFTISRDNAKNTVYLQMNSLKPEDTAVYYCAAPLYVSTSGEVGYWGQGTQVTVSS”, which “polyreactivity (PSR sort gate)” value is on record?
Its value is “high polyreactivity”.

For “QVQLVESGGGLVQAGGSLRLSCAASGRTFRHNAMGWYRQAPGKERELVAAISSSGTNTHYADSVKGRFTISRDNAKNTVYLQMNSLKPEDTAVYYCATVVRSAAYAFDYWGQGTQVTVSS”, which “polyreactivity (PSR sort gate)” value is on record?
Its value is “high polyreactivity”.

With “QVQLVESGGGLVQAGGSLRLSCAASGRTFRINAMGWYRQAPGKERELVAAITSIAGNTYYADSVKGRFTISRDNAKNTVYLQMNSLKPEDTAVYYCAVDSVPWGFRGAYGLTRYYYWGQGTQVTVSS” as the sequence, how does the “polyreactivity (PSR sort gate)” value read?
Its value is “low polyreactivity”.

For “QVQLVESGGGLVQAGGSLRLSCAASGRTFRINAMGWYRQAPGKERELVAAITYRGANTYYADSVKGRFTISRDNAKNTVYLQMNSLKPEDTAVYYCAAEYAYHHVGFGYWGQGTQVTVSS”, which “polyreactivity (PSR sort gate)” value is on record?
The value was “low polyreactivity”.

Which “polyreactivity (PSR sort gate)” value does the source give for “QVQLVESGGGLVQAGGSLRLSCAASGRTFRIYAMGWYRPATGKEREMVATISGRGGNTYYADSVKGRFTISRDNAKNTVYLQMNSLKPDDTAVYYCNTVYLPNFQWFDYWGQGTQVTVSS” here?
Its value is “high polyreactivity”.

For “QVQLVESGGGLVQAGGSLRLSCAASGRTFRIYAMGWYRQAPGKEREFVAAITWSGGRTYYADSVKGRFTISRDNAKNTVYLQMNSLKPEDTAVYYCAADPTYLRTLRFGSYDYWGQGTQVTVSS”, which “polyreactivity (PSR sort gate)” value is on record?
The value was “high polyreactivity”.

Which “polyreactivity (PSR sort gate)” value does the source give for “QVQLVESGGGLVQAGGSLRLSCAASGRTFRKYAMGWYRQAPGKERELVAALSWYGGSTYYANSVKGRFTISRDNAKNTVYLQMNSLKPEDTAVYYCAAVPVHTGSLYWGFTTCYDYWGQGTQVTVSS” here?
The value was “low polyreactivity”.

For “QVQLVESGGGLVQAGGSLRLSCAASGRTFRKYAMGWYRQATGKERELVAAISWSGGSTYYANSVKGRFTISGDNAKNTVYLQINSLNPEDTAVYFCAVDCHPEEYDYWGQGTQVTVSS”, which “polyreactivity (PSR sort gate)” value is on record?
The value was “low polyreactivity”.

With “QVQLVESGGGLVQAGGSLRLSCAASGRTFRLNAMGWYRQAPGKERELVAAINTGGGTYYADSVKGRFTISRDNAKNSVYLQMNSLKPEDTAVYYCNACTRYGSFSYVKYDWGQGTQVTVSS” as the sequence, how does the “polyreactivity (PSR sort gate)” value read?
The value was “high polyreactivity”.

For “QVQLVESGGGLVQAGGSLRLSCAASGRTFRLNAMGWYRQAPGKERELVAAITASGGRTYYADSVKGRFTISRDNAKNTVYLQMNSLKPEDTAVYYCNTLSRTDASRFDYWGQGTQVTVSS”, which “polyreactivity (PSR sort gate)” value is on record?
The value was “high polyreactivity”.

Which “polyreactivity (PSR sort gate)” value does the source give for “QVQLVESGGGLVQAGGSLRLSCAASGRTFRLNAMGWYRQAPGKERELVAAITLGGGRTYYADSVKGRFTISRDNAKNTVYLQMNSLKPEDTAVYYCNKVKRSYYYVDTDYWGQGTQVTVSS” here?
The value was “high polyreactivity”.

Which “polyreactivity (PSR sort gate)” value does the source give for “QVQLVESGGGLVQAGGSLRLSCAASGRTFRLNGMGWYRQAPGKDRELVAAITWSGGRTYYADSVKGRFTISRDNAKNTVYLQKNSLKPEDTAVYYCAAGKSSYGIPKYYYWGQGTQVTVSS” here?
The value was “high polyreactivity”.

With “QVQLVESGGGLVQAGGSLRLSCAASGRTFRLYAMGWYRQAPGKERELVAAISRRGGSTYYADSVKGRFTISRDNAKNTVYLQMNSLKPEDTAVYYCAKGLGSGQEIYGYDYWGQGTQVTVSS” as the sequence, how does the “polyreactivity (PSR sort gate)” value read?
The value was “high polyreactivity”.

For “QVQLVESGGGLVQAGGSLRLSCAASGRTFRPNVMGWYRQAPGKERELVAAISNGGRTYYADSVKGRFTISRDNAKNTVYLQMNSLKPEDTAVYYCNKVRSPWYDSWGQGTQVTVSS”, which “polyreactivity (PSR sort gate)” value is on record?
Its value is “high polyreactivity”.
